Measured values from the supplement of paper PMC10567573.

B1: MYBL2 (parent)
chain: VKKSCWTEEEDRIICEAHKVLGNR
B2: SETD8 (parent)
chain: GKQAPRKKAQGKTQQNRKLTDFYP

Variants of: B1
Experiment: protein stability index of a GFP-peptide fusion (GPS, HEK-293T) (PSI 1-6); higher = more stable
Details: c terminus: a fixed tail appended
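Also: lentivirally expressed fusions sorted by FACS into six bins by GFP to DsRed ratio, PSI derived from sequencing read proportions per bin multiplied by bin number.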

Protein stability index, by site and new letter:
T7: G 3.02, A 2.98, L 3.11, E 2.82, W 2.32, Y 2.93, M 3.03, Q 2.59
C15: V 3.85, E 3.94, Q 3.85, G 4.39, L 3.82, D 4.16, K 3.47, N 3.65, R 3.36, P 4.16, S 3.69, W 2.59, Y 3.01, A 3.43
A17: I 2.09, V 2.37, E 3.49, G 4.14, P 3.12, D 4.36, Y 2.39, R 3.51, K 3.68
R12: Q 3.62, G 3.58, H 3.55, N 3.7, D 3.15, A 3.29, S 3.25, E 3.48, L 2.87, V 3.28, T 3.2, F 3.1, W 2.22, C 2.17
I13: V 4.55, Q 4.24, L 3.06, E 3.5, D 4.37, P 3.85, T 3.74, G 4.41, S 4.32, R 3.19, W 2.47
C5: K 3.53, N 3.38, T 3.79, L 2.01, G 3.75, W 2.73, F 3.22, S 4.1, Q 4.21, E 4.19
K19: I 2.03, V 3.5, N 3.41, Y 2.59, C 3.3, L 2.69, H 2.99, G 3.67, P 3.28, T 3.44, A 3.21, S 4.02, Q 4.09, R 3.23
E16: H 3.1, M 1.78, Q 3.14, D 3.66, V 2.31, P 3.54, N 3.15, L 1.83, G 4, W 2.39, K 3.08, A 2.84, T 2.72, Y 2.32
L21: P 3.8, V 3.35, K 3.26, N 3.83, Q 3.64, D 4.36, Y 3.71, I 3.15, W 3.33, M 3.79, E 3.83, T 3.44, F 2.94, C 3.66, A 3.42
E10: F 1.99, A 2.38, N 3.21, S 2.96, D 3.1, T 2.47, Y 2.28, V 2.13

Variants of: B2
Experiment: as above
Details: c terminus: a fixed tail appended

Protein stability index, by site and new letter:
G1: A 3.04, S 3.17, D 2.68, L 2.66, P 4.24, I 2.74, K 3.75, M 2.6, R 2.94, C 2.98, T 3.2, E 3.79, V 3.12, Q 3.8, F 3.39, H 3, Y 3.1, N 2.88
K2: L 4.09, T 2.46, A 3.09, V 3.99, F 3.34, N 3.11, R 3.07, W 3.69, Y 2.95, M 3.05, C 2.92, Q 3.4, G 2.67
A4: G 3.46, N 3.23, K 3.73, E 3.04, I 3.09, F 3.05, C 3.34
Q3: P 2.01, F 2.67, A 2.63, H 3.8, G 3.38, I 3.33, V 2.28, K 3.85, D 3.41, Y 3.58, R 4.32, T 2.93
